Columns and labels:
[1] = biological target: c-Src SH2; assay: SH2 binding enrichment of the phosphorylated peptide, bacterial display (enrichment ratio); higher = better substrate or ligand; peptides without Tyr show the background
[2] = biological target: SHP2-C SH2; assay: as above
[3] = biological target: Grb2 SH2 (UniProt P62993); assay: as above
[4] = biological target: Fes (UniProt P07332); assay: phosphorylation enrichment, bacterial display (enrichment ratio); higher = better substrate or ligand; peptides without Tyr show the background
Chain of Fes (P07332 whole entry, looked up): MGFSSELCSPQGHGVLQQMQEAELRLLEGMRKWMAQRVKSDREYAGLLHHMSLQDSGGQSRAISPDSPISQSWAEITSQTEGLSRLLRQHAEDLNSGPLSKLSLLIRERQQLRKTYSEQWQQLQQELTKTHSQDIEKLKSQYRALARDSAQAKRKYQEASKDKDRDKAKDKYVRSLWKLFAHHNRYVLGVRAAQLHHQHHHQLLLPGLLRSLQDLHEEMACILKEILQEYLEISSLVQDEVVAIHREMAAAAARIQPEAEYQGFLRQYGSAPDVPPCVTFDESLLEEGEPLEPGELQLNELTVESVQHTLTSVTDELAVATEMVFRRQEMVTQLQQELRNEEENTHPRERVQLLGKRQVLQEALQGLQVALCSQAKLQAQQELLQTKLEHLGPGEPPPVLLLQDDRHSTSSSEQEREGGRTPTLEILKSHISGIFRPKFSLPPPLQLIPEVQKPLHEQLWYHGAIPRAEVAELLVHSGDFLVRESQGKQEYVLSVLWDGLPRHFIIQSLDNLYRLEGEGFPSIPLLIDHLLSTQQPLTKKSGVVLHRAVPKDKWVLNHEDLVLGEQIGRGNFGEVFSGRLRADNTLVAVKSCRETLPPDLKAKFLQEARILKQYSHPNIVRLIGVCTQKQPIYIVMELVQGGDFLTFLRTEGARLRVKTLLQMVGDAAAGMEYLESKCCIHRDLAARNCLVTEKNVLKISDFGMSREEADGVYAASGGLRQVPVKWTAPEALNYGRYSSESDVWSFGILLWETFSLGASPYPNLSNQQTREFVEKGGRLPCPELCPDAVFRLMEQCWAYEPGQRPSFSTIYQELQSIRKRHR

[5] = biological target: MERTK (UniProt Q12866); assay: as above
Chain of MERTK (Q12866 whole entry, looked up): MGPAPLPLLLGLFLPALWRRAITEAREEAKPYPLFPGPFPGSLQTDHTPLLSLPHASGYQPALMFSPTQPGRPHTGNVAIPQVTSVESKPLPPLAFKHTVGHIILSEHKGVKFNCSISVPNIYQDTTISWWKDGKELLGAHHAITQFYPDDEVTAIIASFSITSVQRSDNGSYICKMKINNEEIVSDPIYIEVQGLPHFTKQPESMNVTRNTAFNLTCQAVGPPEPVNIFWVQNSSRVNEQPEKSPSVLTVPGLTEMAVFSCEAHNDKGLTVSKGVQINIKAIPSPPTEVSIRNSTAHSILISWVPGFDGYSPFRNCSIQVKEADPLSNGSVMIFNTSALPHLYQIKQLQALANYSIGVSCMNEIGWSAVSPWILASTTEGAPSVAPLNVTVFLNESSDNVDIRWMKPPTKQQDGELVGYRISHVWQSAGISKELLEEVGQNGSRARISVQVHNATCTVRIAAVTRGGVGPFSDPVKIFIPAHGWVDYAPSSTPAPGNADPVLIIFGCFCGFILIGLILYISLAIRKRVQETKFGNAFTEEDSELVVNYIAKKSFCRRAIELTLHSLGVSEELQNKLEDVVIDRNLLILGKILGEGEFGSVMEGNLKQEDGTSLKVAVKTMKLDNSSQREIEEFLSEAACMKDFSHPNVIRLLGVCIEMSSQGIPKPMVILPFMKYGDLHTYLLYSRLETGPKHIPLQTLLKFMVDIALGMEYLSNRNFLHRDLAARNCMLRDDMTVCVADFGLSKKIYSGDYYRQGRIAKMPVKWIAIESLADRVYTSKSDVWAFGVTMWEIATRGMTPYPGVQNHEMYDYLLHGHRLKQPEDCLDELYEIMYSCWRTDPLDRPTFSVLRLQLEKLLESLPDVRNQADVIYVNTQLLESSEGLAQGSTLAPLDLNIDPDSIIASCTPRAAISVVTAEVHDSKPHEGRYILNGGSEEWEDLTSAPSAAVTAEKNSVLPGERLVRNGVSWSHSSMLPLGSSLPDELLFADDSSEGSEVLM

[6] = biological target: Jak2 (UniProt O60674); assay: as above
[7] = biological target: Hck (UniProt P08631); assay: as above
[8] = test system: c-Src; assay: as above
[9] = biological target: EPHB2 (UniProt P29323); assay: as above
Chain of EPHB2 (P29323 whole entry, looked up): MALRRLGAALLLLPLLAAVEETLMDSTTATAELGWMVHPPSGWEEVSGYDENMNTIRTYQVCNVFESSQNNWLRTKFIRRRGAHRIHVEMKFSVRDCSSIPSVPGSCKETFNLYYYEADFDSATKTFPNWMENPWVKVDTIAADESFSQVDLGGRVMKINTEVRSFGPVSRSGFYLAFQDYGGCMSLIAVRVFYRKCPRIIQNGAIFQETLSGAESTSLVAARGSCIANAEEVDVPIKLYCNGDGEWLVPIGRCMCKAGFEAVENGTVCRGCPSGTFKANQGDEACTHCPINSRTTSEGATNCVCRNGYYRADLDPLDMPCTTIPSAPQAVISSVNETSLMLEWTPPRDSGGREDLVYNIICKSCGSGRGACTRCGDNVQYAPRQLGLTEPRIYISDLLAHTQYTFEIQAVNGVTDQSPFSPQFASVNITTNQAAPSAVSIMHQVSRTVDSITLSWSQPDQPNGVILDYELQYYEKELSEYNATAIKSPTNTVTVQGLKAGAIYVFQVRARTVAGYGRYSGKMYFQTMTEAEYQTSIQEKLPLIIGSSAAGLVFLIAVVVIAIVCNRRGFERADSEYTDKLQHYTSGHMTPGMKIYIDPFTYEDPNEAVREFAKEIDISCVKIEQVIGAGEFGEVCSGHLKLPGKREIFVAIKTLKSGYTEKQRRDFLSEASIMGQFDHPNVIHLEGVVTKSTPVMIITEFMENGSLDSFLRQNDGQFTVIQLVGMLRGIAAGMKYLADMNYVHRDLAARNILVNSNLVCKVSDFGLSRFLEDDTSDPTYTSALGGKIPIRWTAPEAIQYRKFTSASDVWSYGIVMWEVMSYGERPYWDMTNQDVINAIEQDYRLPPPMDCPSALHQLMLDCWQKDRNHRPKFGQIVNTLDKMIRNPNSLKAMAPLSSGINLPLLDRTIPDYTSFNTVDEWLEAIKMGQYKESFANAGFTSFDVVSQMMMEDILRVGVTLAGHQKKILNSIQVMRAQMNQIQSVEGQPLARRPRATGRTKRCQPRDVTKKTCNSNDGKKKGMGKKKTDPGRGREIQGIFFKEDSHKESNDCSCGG

[10] = test system: AncSZ; assay: as above
[11] = biological target: FGFR1 (UniProt P11362); assay: as above
Chain of FGFR1 (P11362 whole entry, looked up): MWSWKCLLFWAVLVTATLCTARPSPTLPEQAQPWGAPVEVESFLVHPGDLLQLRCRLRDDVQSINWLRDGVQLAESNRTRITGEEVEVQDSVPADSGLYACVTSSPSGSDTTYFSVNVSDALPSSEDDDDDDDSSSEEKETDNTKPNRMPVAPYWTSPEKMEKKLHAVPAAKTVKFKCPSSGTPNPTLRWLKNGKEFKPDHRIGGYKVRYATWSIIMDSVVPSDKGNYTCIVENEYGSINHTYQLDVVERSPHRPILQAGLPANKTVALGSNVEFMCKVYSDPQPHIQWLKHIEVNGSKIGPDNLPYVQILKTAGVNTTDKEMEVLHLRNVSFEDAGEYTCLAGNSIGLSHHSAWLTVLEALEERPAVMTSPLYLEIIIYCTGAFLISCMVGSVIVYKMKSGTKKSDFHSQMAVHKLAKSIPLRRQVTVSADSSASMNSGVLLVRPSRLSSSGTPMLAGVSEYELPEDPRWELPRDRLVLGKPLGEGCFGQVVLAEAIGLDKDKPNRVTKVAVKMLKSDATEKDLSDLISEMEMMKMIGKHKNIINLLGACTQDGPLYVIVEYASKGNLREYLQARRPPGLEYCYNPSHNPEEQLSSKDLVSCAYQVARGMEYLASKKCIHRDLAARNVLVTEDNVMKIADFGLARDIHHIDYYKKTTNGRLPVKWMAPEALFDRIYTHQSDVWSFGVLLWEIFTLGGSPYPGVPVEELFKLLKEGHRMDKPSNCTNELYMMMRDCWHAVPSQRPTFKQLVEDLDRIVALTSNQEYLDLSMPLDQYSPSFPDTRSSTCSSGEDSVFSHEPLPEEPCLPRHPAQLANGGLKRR

[12] = biological target: EPHB1 (UniProt P54762); assay: as above
[13] = test system: Fer (mouse); assay: as above
[14] = biological target: FGFR3 (UniProt P22607); assay: as above
Chain of FGFR3 (P22607 whole entry, looked up): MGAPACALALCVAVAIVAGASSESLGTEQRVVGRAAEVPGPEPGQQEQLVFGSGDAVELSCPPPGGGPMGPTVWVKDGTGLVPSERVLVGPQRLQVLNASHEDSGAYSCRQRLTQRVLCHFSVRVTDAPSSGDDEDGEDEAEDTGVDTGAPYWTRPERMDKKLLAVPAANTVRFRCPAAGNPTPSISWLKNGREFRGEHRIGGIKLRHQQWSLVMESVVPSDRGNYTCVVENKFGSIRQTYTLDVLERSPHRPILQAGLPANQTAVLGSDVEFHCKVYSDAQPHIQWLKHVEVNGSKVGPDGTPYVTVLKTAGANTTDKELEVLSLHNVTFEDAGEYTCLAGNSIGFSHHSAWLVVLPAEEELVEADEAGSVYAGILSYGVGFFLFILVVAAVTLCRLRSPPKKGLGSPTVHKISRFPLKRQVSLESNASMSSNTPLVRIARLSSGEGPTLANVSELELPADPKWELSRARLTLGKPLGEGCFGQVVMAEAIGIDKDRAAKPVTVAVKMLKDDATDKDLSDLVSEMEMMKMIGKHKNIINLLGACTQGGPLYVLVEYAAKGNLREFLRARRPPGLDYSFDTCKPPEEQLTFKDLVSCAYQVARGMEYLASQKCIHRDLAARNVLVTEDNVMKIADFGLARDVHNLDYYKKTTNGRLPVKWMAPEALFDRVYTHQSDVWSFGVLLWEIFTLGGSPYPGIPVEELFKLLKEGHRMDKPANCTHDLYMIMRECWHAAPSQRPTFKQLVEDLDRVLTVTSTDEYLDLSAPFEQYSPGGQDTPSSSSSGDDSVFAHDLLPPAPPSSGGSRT

[15] = biological target: Fyn (UniProt P06241); assay: as above
Chain of Fyn (P06241 whole entry, looked up): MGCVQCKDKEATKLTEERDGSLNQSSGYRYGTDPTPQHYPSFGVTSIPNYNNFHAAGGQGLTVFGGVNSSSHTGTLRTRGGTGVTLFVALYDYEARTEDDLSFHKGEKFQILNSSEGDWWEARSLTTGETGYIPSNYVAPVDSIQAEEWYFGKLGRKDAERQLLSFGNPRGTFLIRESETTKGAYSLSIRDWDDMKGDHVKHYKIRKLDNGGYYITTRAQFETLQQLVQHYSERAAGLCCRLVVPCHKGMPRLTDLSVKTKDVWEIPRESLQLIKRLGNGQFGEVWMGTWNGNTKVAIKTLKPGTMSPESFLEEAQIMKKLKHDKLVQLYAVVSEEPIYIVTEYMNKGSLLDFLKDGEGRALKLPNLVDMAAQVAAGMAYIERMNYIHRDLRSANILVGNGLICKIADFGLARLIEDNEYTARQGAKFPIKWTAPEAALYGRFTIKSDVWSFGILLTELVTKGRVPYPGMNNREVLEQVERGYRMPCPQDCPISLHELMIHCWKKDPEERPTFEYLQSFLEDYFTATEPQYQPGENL

[16] = test system: c-Abl (mouse); assay: as above
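Wherever SH2 binding enrichment of the phosphorylated peptide, bacterial display is given: peptide library displayed on the E. coli surface as eCPX fusions, selected cells deep-sequenced, score is each peptide's frequency after selection divided by its frequency in the input.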
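Wherever phosphorylation enrichment, bacterial display is given: 11-residue human phosphosite peptides and single-mutation variants displayed on the E. coli surface, counted by deep sequencing, each peptide's frequency after selection divided by its frequency in the unselected input library; frequency after pTyr selection over input frequency; kinase dosed for 20-30% of maximal phosphorylation in three min.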

Row | Sequence | SH2 binding enrichment [1] | SH2 binding enrichment [2] | SH2 binding enrichment [3] | phosphorylation enrichment [4] | phosphorylation enrichment [5] | phosphorylation enrichment [6] | phosphorylation enrichment [7] | phosphorylation enrichment [8] | phosphorylation enrichment [9] | phosphorylation enrichment [10] | phosphorylation enrichment [11] | phosphorylation enrichment [12] | phosphorylation enrichment [13] | phosphorylation enrichment [14] | phosphorylation enrichment [15] | phosphorylation enrichment [16]
1 | DVCKKYAEAKD [ALB_Y343_N342K] | 0.562 | 0.431 | 0.757 | 1.23 | 0.402 | 0.897 | 0.659 | 0.53 | 0.646 | 1.24 | 0.627 | 0.72 | 0.546 | 0.821 | 0.639 | 0.775
2 | GCKKRYDKDKP [THAP1_Y14_N12K] | 0.337 | 0.386 | 0.755 | 0.702 | 0.6 | 0.529 | 0.452 | 0.531 | 0.534 | 0.833 | 0.506 | 0.449 | 0.445 | 0.703 | 0.396 | 0.621
3 | DFTEAYNSKIK [CLK1_Y305_P307S_YF] | 0.45 | 0.613 | 0.945 | 1.02 | 0.464 | 0.908 | 0.526 | 0.56 | 0.622 | 0.899 | 0.592 | 0.721 | 0.465 | 0.65 | 0.512 | 0.795
4 | ASLLPYFPAIM [IPO4_Y518] | 0.672 | 0.806 | 1.15 | 0.938 | 0.364 | 0.802 | 0.484 | 0.457 | 0.576 | 0.782 | 0.537 | 0.479 | 0.532 | 0.694 | 0.544 | 0.626
5 | VECHPYFTQPK [AKR1D1_Y199] | 0.444 | 0.637 | 0.765 | 1.01 | 0.371 | 0.819 | 0.515 | 0.779 | 0.517 | 0.938 | 0.591 | 0.525 | 0.421 | 0.709 | 0.559 | 0.617
6 | MGIMLYGVDSR [PKD1_Y3143_V3138M] | 0.439 | 0.653 | 0.61 | 1.08 | 0.475 | 1.03 | 0.55 | 0.496 | 0.576 | 0.931 | 0.449 | 0.546 | 0.529 | 0.694 | 0.467 | 0.745
7 | SGGSSYGSGGG [KRT1_Y532] | 0.427 | 0.527 | 0.871 | 0.583 | 0.362 | 0.537 | 0.396 | 0.449 | 0.396 | 0.506 | 0.411 | 0.381 | 0.397 | 0.389 | 0.382 | 0.633
8 | MRALTYCDLHK [KCNH2_Y827_V822M] | 0.626 | 0.708 | 0.703 | 1.09 | 0.365 | 0.771 | 0.507 | 0.37 | 0.523 | 0.853 | 0.509 | 0.73 | 0.507 | 0.536 | 0.407 | 0.626
9 | KPNMNYDKLSR [FLI1_Y332] | 1.59 | 0.725 | 0.895 | 0.486 | 0.337 | 0.389 | 0.454 | 0.418 | 0.541 | 0.548 | 0.416 | 0.494 | 0.324 | 0.4 | 0.342 | 0.459
10 | EQLRAYLEGLC [HLA-C_Y183_T187L] | 0.449 | 0.66 | 0.704 | 1.58 | 0.615 | 1.45 | 0.73 | 0.618 | 0.673 | 1.34 | 0.512 | 0.653 | 0.607 | 0.843 | 0.482 | 1.13
11 | EMTRNYIIFIE [BCO2_Y294_G289E] | 0.625 | 0.903 | 1.19 | 1.08 | 0.513 | 1.06 | 0.534 | 0.464 | 0.569 | 1.1 | 0.575 | 0.51 | 0.487 | 0.683 | 0.586 | 0.572
12 | GTQGSYLLSRK [UGT3A1_Y123_C121G] | 0.392 | 0.821 | 0.584 | 0.56 | 0.433 | 0.615 | 0.49 | 0.555 | 0.411 | 0.523 | 0.366 | 0.48 | 0.392 | 0.355 | 0.4 | 0.606
13 | VGIMLYGVDSR [PKD1_Y3143] | 0.489 | 0.63 | 0.888 | 1.19 | 0.383 | 1.05 | 0.61 | 0.435 | 0.626 | 1.12 | 0.592 | 0.575 | 0.634 | 0.792 | 0.572 | 0.77
14 | SSTAMYSAPGR [PSMB1_Y8] | 1.08 | 0.557 | 0.774 | 0.524 | 1.66 | 0.58 | 2.28 | 0.631 | 0.674 | 0.75 | 0.45 | 0.497 | 0.857 | 0.464 | 0.484 | 6.02
15 | RKIMGYSIRTI [IDS_Y490_I485R] | 0.654 | 0.718 | 0.944 | 0.796 | 0.535 | 0.62 | 0.624 | 0.666 | 0.556 | 0.699 | 0.664 | 0.676 | 0.619 | 0.524 | 0.591 | 0.759
16 | GLGGGYGGASG [KRT8_Y54] | 0.369 | 0.62 | 0.692 | 0.534 | 0.285 | 0.379 | 0.316 | 0.317 | 0.359 | 0.429 | 0.398 | 0.376 | 0.348 | 0.367 | 0.344 | 0.448
17 | SGPRRYTVAAL [TTR_Y125_I127V] | 0.618 | 0.516 | 0.794 | 0.496 | 0.395 | 0.729 | 0.429 | 0.415 | 0.42 | 0.51 | 0.401 | 0.409 | 0.393 | 0.423 | 0.457 | 0.635
18 | ENAGFYFRVSA | 0.359 | 0.738 | 0.646 | 1.58 | 0.44 | 1.22 | 0.62 | 0.324 | 0.704 | 1.45 | 0.841 | 0.794 | 0.724 | 1.1 | 0.45 | 0.831
19 | PMWHPYKADVT [TP53TG5_Y255_V257A] | 0.484 | 1.04 | 0.791 | 1.12 | 0.428 | 0.911 | 0.615 | 0.756 | 0.572 | 0.851 | 0.309 | 0.657 | 0.588 | 0.6 | 0.565 | 0.94
20 | NYADPYRQLQY [CTNND2_Y503] | 1.5 | 1.12 | 0.892 | 0.747 | 2.57 | 0.672 | 0.615 | 0.551 | 10.8 | 0.776 | 3.72 | 9.61 | 0.464 | 1.99 | 0.43 | 0.687
21 | SLAARYYNWVC [FLT4_Y1230_S1235C] | 1.87 | 1.21 | 6.7 | 1.47 | 3.49 | 1.39 | 0.728 | 0.597 | 0.883 | 1.4 | 4.96 | 0.907 | 0.777 | 3.95 | 0.565 | 0.957

Continued, in another order:

Row | SH2 binding enrichment [1] | SH2 binding enrichment [2] | SH2 binding enrichment [3] | Sequence | phosphorylation enrichment [4] | phosphorylation enrichment [5] | phosphorylation enrichment [6] | phosphorylation enrichment [7] | phosphorylation enrichment [8] | phosphorylation enrichment [9] | phosphorylation enrichment [10] | phosphorylation enrichment [11] | phosphorylation enrichment [12] | phosphorylation enrichment [13] | phosphorylation enrichment [14] | phosphorylation enrichment [15] | phosphorylation enrichment [16]
22 | 0.536 | 0.524 | 0.872 | ATLDVYNPFET [SCAMP3_Y41] | 1.42 | 0.556 | 1.37 | 2.15 | 3.24 | 0.537 | 1.09 | 0.52 | 0.629 | 0.581 | 0.652 | 2.49 | 0.838
23 | 1.17 | 1.5 | 1.56 | MFNPFYGLFEF [NEDD4L_Y680_YF] | 1.04 | 5.83 | 0.852 | 2.35 | 5.41 | 0.549 | 0.998 | 0.602 | 0.513 | 5.44 | 0.794 | 4.38 | 0.775
24 | 0.654 | 0.604 | 1.13 | TRDVNYGWVIR [MT-CYB_Y75_I78V] | 1.45 | 1.12 | 1.22 | 0.806 | 0.576 | 1.27 | 1.16 | 0.612 | 0.947 | 1.05 | 0.869 | 0.647 | 0.841
25 | 0.478 | 0.6 | 0.581 | PELIDYGKLRK [ACTN1_Y193] | 0.8 | 0.62 | 0.368 | 0.446 | 0.404 | 0.668 | 0.86 | 0.714 | 0.441 | 0.465 | 0.544 | 0.587 | 0.537
26 | 3.07 | 0.823 | 1.01 | KWRGQYDVAIE [BTK_Y425_K430E] | 0.774 | 0.424 | 0.708 | 0.509 | 0.437 | 0.531 | 0.631 | 0.448 | 0.441 | 0.505 | 0.481 | 0.39 | 0.537
27 | 0.611 | 0.683 | 0.905 | HLSPEYKQNEI [GJB1_Y243_R238H] | 1.07 | 0.676 | 0.874 | 0.614 | 0.532 | 1.33 | 0.966 | 0.857 | 0.68 | 0.418 | 0.728 | 0.594 | 0.716
28 | 0.873 | 0.697 | 1.62 | GADDSYYTVRS [ZAP70_Y492_A495V] | 0.882 | 0.676 | 1.16 | 2.39 | 1.65 | 0.548 | 1.43 | 5.51 | 0.68 | 0.644 | 3.76 | 1.44 | 0.79
29 | 0.589 | 1.12 | 0.727 | LINSVYGCSRQ [TMPRSS6_Y290_T287N] | 1.57 | 1.21 | 1.82 | 4.43 | 5.15 | 1 | 1.43 | 1.02 | 1.01 | 0.863 | 0.974 | 3.32 | 1.37
30 | 0.57 | 0.888 | 0.835 | FLAATYPTVGQ [NF1_Y2508_YF] | 0.634 | 0.396 | 0.404 | 0.518 | 0.426 | 0.494 | 0.548 | 0.357 | 0.444 | 0.593 | 0.523 | 0.435 | 0.401
31 | 0.933 | 1.1 | 1.05 | IFGVSYGEYRY [CFTR_Y512_D513G] | 1.33 | 0.537 | 0.858 | 4.11 | 5.62 | 0.691 | 0.9 | 0.603 | 0.852 | 0.736 | 0.819 | 7.22 | 0.632
32 | 0.515 | 0.701 | 0.926 | FAAAGYGSLEA [EPHA10_Y959] | 0.844 | 0.469 | 0.675 | 0.436 | 1.14 | 0.485 | 0.86 | 0.507 | 0.403 | 0.487 | 0.535 | 0.443 | 0.747
33 | 0.685 | 0.68 | 0.886 | AQINLYQDVML [ZNF806_Y33] | 2.83 | 2.17 | 1.01 | 2.05 | 1.05 | 8.39 | 1.25 | 1.14 | 15 | 15.4 | 1.29 | 1.15 | 0.928
